Details: Homo sapiens; pH 2.7; Thermal; DSC; Gly-HCl 0.05 M; reversible: yes; whole UniProt chain shown

B1: Lysozyme C wild type, P61626 (protein)
chain: MKALIVLGLVLLSVTVQGKVFERCELARTLKRLGMDGYRGISLANWMCLAKWESGYNTRATNYNAGDRSTDYGIFQINSRYWCNDGKTPGAVNACHLSCSALLQDNIADAVACAKRVVRDPQGIRAWVAWRNRCQNRDVRQYVQGCGV
Question: With B1 as the protein, how does the Tm read?
Answer: 64.9 °C

Question: And the “heat capacity change of unfolding” value?
Answer: 1.58 kcal/mol/K

Question: And the “unfolding enthalpy (van 't Hoff)” value?
Answer: 114 kcal/mol

From FireProtDB (doi:10.1002/prot.1147)
